Values of other authors, collected in paper PMC4023866.

Biological target: GAPDH (Homo sapiens) (UniProt P04406)

NleB (from UniProt B7UI21)
Kd: 36 µM
